The results in this text go back to publication PMC6894463, “Improved spectrophotometric assay for lytic polysaccharide monooxygenase” (Biotechnology for Biofuels, 2019).

Substrate in this data set: COc1cc(-c2cc(OC)c(O)c(OC)c2)cc(OC)c1O
Description: purified protein. In kind it is biochemical, Neurospora crassa. The settings on record: 100 µM H2O2 co-substrate, 50 mM sodium phosphate pH 6.0, apparent, no saturation reached.

B1: NcLPMO9C (Neurospora crassa OR74A) (protein)
chain: HTIFQKVSVNGADQGQLKGIRAPANNNPVTDVMSSDIICNAVTMKDSNVLTVPAGAKVGHFWGHEIGGAAGPNDADNPIAASHKGPIMVYLAKVDNAATTGTSGLKWFKVAEAGLSNGKWAVDDLIANNGWSYFDMPTCIAPGQYLMRAELIALHNAGSQAGAQFYIGCAQINVTGGGSASPSNTVSFPGAYSASDPGILINIYGGSGKTDNGGKPYQIPGPALFTCPAGGSGGSSPAPATTASTPKPTSASAPKPVSTTASTPKPTNGSGSGTGAAHSTKCGGSKPAATTKASNPQPTNGGNSAVRAAALYGQCGGKGWTGPTSCASGTCKFSNDWYSQCLP
notes: full-length secreted enzyme, recombinant in Pichia pastoris X-33, purified
Broadly, the Km is the substrate concentration at which the rate is half of its maximum. In the case of B1, the Km amounted to 3.6 ± 0.5 mM.
